Tests used:
HeLa Kyoto [1] = assay: solubility in G1/S (NP-40 vs SDS abundance) (log2 ratio); higher = more soluble; settings: cell cycle stage: G1/S
HeLa Kyoto [2] = assay: melting temperature (median over replicates), in situ; higher = more thermally stable
HeLa Kyoto [3] = assay: solubility change mitosis vs G1/S (difference of NP-40 vs SDS log2 ratios) (log2 ratio difference); higher = more soluble in mitosis
HeLa Kyoto [4] = assay: thermal stability score vs G1/S (z-score of summed log2 fold changes over temperatures); higher = more thermally stable than in G1/S
[5] = cell cycle stage: early G1 (4.5 h after nocodazole release)
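For melting temperature (median over replicates), in situ in this document: HeLa Kyoto cells synchronized by double thymidine or nocodazole block, proteins quantified by TMT10plex mass spectrometry, three independent biological replicates.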
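For solubility change mitosis vs G1/S (difference of NP-40 vs SDS log2 ratios) in this document: synchronized HeLa Kyoto cells (double thymidine block for G1/S, nocodazole release for mitosis), protein amounts in NP-40 versus SDS lysates quantified by mass spectrometry, three biological replicates.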
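For solubility in G1/S (NP-40 vs SDS abundance) in this document: HeLa Kyoto cells arrested at G1/S by double thymidine block, proteins quantified by TMT10plex mass spectrometry in mild NP-40 versus SDS extracts, three biological replicates.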
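For thermal stability score vs G1/S (z-score of summed log2 fold changes over temperatures) in this document: synchronized HeLa Kyoto cells, proteins quantified by TMT10plex mass spectrometry, three biological replicates, mitosis taken 0.5 h after nocodazole release, G1/S directly after double thymidine block.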

| Substance | solubility in G1/S (log2) (HeLa Kyoto [1]) | melting temperature (HeLa Kyoto [2]; cell cycle stage: G1/S) | melting temperature (HeLa Kyoto [2]; cell cycle stage: mitosis) | solubility change mitosis (log2) (HeLa Kyoto [3]) | thermal stability score (HeLa Kyoto [4]; [5]) | thermal stability score (HeLa Kyoto [4]; cell cycle stage: mitosis) |
| --- | --- | --- | --- | --- | --- | --- |
| MERAVQGTDGGGGSNSSSRSSSRATSAGSSPSCSLAGRGVSSRSAAAGLGGGGSRSSPGSVAASPSGGGGRRREPALEGVLSKYTNLLQGWQNRYFVLDFEAGILQYFVNEQSKHQKPRGVLSLSGAIVSLSDEAPHMLVVYSANGEMFKLRAADAKEKQFWVTQLRACAKYHMEMNSKSAPSSRSRSLTLLPHGTPNSASPCSQRHLSVGAPGVVTITHHKSPAAARRAKSQYSGQLHEVREMMNQVEGQQKNLVHAIESLPGSGPLTALDQDLLLLKATSAATLSCLGECLNLLQQSVHQAGQPSQKPGASENILGWHGSKSHSTEQLKNGTLGSLPSASANITWAILPNSAEDEQTSQPEPEPNSGSELVLSEDEKSDNEDKEETELGVMEDQRSIILHLISQLKLGMDLTKVVLPTFILEKRSLLEMYADFMAHPDLLLAITAGATPEERVICFVEYYLTAFHEGRKGALAKKPYNPIIGETFHCSWEVPKDRVKPKRTASRSPASCHEHPMADDPSKSYKLRFVAEQVSHHPPISCFYCECEEKRLCVNTHVWTKSKFMGMSVGVSMIGEGVLRLLEHGEEYVFTLPSAYARSILTIPWVELGGKVSINCAKTGYSATVIFHTKPFYGGKVHRVTAEVKHNPTNTIVCKAHGEWNGTLEFTYNNGETKVIDTTTLPVYPKKIRPLEKQGPMESRNLWREVTRYLRLGDIDAATEQKRHLEEKQRVEERKRENLRTPWKPKYFIQEGDGWVYFNPLWKAH [OSBPL10] | 0.0171 | 48.6 °C | 51 °C | 0.13 | -0.0143 | -0.526 |
| GEMIN5 | -0.199 | 49.4 °C | 49.7 °C | -0.155 | -0.261 | 1.19 |
| MATEGMILTNHDHQIRVGVLTVSDSCFRNLAEDRSGINLKDLVQDPSLLGGTISAYKIVPDEIEEIKETLIDWCDEKELNLILTTGGTGFAPRDVTPEATKEVIEREAPGMALAMLMGSLNVTPLGMLSRPVCGIRGKTLIINLPGSKKGSQECFQFILPALPHAIDLLRDAIVKVKEVHDELEDLPSPPPPLSPPPTTSPHKQTEDKGVQCEEEEEEKKDSGVASTEDSSSSHITAAAIAAKIPDSIISRGVQVLPRDTASLSTTPSESPRAQATSRLSTASCPTPKVQSRCSSKENILRASHSAVDITKVARRHRMSPFPLTSMDKAFITVLEMTPVLGTEIINYRDGMGRVLAQDVYAKDNLPPFPASVKDGYAVRAADGPGDRFIIGESQAGEQPTQTVMPGQVMRVTTGAPIPCGADAVVQVEDTELIRESDDGTEELEVRILVQARPGQDIRPIGHDIKRGECVLAKGTHMGPSEIGLLATVGVTEVEVNKFPVVAVMSTGNELLNPEDDLLPGKIRDSNRSTLLATIQEHGYPTINLGIVGDNPDDLLNALNEGISRADVIITSGGVSMGEKDYLKQVLDIDLHAQIHFGRVFMKPGLPTTFATLDIDGVRKIIFALPGNPVSAVVTCNLFVVPALRKMQGILDPRPTIIKARLSCDVKLDPRPEYHRCILTWHHQEPLPWAQSTGNQMSSRLMSMRSANGLLMLPPKTEQYVELHKGEVVDVMVIGRL [GPHN] | 0.226 | 55.6 °C | 54.6 °C | -0.057 | -0.16 | -1.19 |
| MCAAQMPPLAHIFRGTFVHSTWTCPMEVLRDHLLGVSDSGKIVFLEEASQQEKLAKEWCFKPCEIRELSHHEFFMPGLVDTHIHASQYSFAGSSIDLPLLEWLTKYTFPAEHRFQNIDFAEEVYTRVVRRTLKNGTTTACYFATIHTDSSLLLADITDKFGQRAFVGKVCMDLNDTFPEYKETTEESIKETERFVSEMLQKNYSRVKPIVTPRFSLSCSETLMGELGNIAKTRDLHIQSHISENRDEVEAVKNLYPSYKNYTSVYDKNNLLTNKTVMAHGCYLSAEELNVFHERGASIAHCPNSNLSLSSGFLNVLEVLKHEVKIGLGTDVAGGYSYSMLDAIRRAVMVSNILLINKVNEKSLTLKEVFRLATLGGSQALGLDGEIGNFEVGKEFDAILINPKASDSPIDLFYGDFFGDISEAVIQKFLYLGDDRNIEEVYVGGKQVVPFSSSV [GDA] | 0.0143 | 61.9 °C | 63.7 °C | -0.0926 | -1.49 | -2.29 |
| MMDLRNTPAKSLDKFIEDYLLPDTCFRMQINHAIDIICGFLKERCFRGSSYPVCVSKVVKGGSSGKGTTLRGRSDADLVVFLSPLTTFQDQLNRRGEFIQEIRRQLEACQRERAFSVKFEVQAPRWGNPRALSFVLSSLQLGEGVEFDVLPAFDALGQLTGGYKPNPQIYVKLIEECTDLQKEGEFSTCFTELQRDFLKQRPTKLKSLIRLVKHWYQNCKKKLGKLPPQYALELLTVYAWERGSMKTHFNTAQGFRTVLELVINYQQLCIYWTKYYDFKNPIIEKYLRRQLTKPRPVILDPADPTGNLGGGDPKGWRQLAQEAEAWLNYPCFKNWDGSPVSSWILLAESNSADDETDDPRRYQKYGYIGTHEYPHFSHRPSTLQAASTPQAEEDWTCTIL [OAS1] | 0.134 | 50.5 °C | 49.5 °C | -0.0843 | -0.255 | 0.00402 |
| MFGTLLLYCFFLATVPALAETGGERQLSPEKSEIWGPGLKADVVLPARYFYIQAVDTSGNKFTSSPGEKVFQVKVSAPEEQFTRVGVQVLDRKDGSFIVRYRMYASYKNLKVEIKFQGQHVAKSPYILKGPVYHENCDCPLQDSAAWLREMNCPETIAQIQRDLAHFPAVDPEKIAVEIPKRFGQRQSLCHYTLKDNKVYIKTHGEHVGFRIFMDAILLSLTRKVKMPDVELFVNLGDWPLEKKKSNSNIHPIFSWCGSTDSKDIVMPTYDLTDSVLETMGRVSLDMMSVQANTGPPWESKNSTAVWRGRDSRKERLELVKLSRKHPELIDAAFTNFFFFKHDENLYGPIVKHISFFDFFKHKYQINIDGTVAAYRLPYLLVGDSVVLKQDSIYYEHFYNELQPWKHYIPVKSNLSDLLEKLKWAKDHDEEAKKIAKAGQEFARNNLMGDDIFCYYFKLFQEYANLQVSEPQIREGMKRVEPQTEDDLFPCTCHRKKTKDEL [KDELC1] | 0.0317 | 53.5 °C | 54 °C | -0.102 | 2.25 | 2.83 |
| MFSD10 | -0.0104 | 57.2 °C | 57.1 °C | -0.219 | -2.75 | -4.59 |
| MAAGTAAALAFLSQESRTRAGGVGGLRVPAPVTMDSFFFGCELSGHTRSFTFKVEEEDDAEHVLALTMLCLTEGAKDECNVVEVVARNHDHQEIAVPVANLKLSCQPMLSLDDFQLQPPVTFRLKSGSGPVRITGRHQIVTMSNDVSEEESEEEEEDSDEEEVELCPILPAKKQGGRP [NPM3] | -0.153 | 54 °C | 53 °C | 0.0933 | -0.577 | -2.29 |

Source: the supplement of paper PMC5998384
